According to patent US20260034234A1 (AGENSYS, published 2026):

Key:
[1] = biological target: T1, Rat 191P4D12 (on PC3 cells) (rat, UniProt D3ZET1 31-509); experiment: FACS on PC3 cells expressing the rat ortholog
T1 construct: whole, on cells; also called PC3-rat-191P4D12; Rat ortholog
T1 sequence: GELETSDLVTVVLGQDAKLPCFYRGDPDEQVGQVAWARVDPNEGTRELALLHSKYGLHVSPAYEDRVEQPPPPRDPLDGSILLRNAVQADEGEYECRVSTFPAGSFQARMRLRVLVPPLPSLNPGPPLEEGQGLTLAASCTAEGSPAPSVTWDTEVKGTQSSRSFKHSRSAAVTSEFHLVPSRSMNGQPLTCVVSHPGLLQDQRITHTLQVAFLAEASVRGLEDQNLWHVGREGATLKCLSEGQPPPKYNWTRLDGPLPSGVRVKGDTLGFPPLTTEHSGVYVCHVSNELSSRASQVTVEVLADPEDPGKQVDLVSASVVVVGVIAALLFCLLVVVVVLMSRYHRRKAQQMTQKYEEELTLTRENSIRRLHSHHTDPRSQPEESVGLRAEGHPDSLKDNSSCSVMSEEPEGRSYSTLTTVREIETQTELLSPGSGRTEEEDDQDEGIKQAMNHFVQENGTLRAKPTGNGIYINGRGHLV
From the text: The 191P4D12 protein of human, cynomolgus, rat and murine origin was overexpressed recombinantly in a PC3 cell line to determine cross-reactivity of Ha22-2(2,4)6.1 to these orthologs. It was shown that Ha22-2(2,4)6.1 strongly cross-reacts with cynomolgus and rat orthologs of 191P4D12 (FIG. 23).

[2] = biological target: T2, 191P4D12 (human, wild type, on cells) (human, UniProt Q96NY8 32-510); experiment: FACS titration on PC3 cells expressing 191P4D12
T2 construct: 510 amino acid ORF expressed on PC3, RAT/Rat1(E) cells and present in cancer cell lines and tumor specimens; also called human 191P4D12; wild-type 191P4D12
T2 sequence: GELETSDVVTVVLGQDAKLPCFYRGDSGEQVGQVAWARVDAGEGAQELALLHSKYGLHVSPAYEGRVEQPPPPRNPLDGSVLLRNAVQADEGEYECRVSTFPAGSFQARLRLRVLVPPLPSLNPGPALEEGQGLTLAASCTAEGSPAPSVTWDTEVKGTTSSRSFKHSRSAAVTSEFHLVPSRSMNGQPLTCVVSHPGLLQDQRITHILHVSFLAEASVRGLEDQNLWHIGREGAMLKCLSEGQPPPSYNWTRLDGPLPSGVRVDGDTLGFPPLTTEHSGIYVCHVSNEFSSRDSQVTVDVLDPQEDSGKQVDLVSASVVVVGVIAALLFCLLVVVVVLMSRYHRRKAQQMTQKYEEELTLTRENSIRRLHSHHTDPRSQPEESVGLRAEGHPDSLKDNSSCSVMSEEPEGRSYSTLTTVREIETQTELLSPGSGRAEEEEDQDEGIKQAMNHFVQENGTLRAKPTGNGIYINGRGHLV

[3] = biological target: T3, purified recombinant 191P4D12 (ECD amino acids 1-348) (human, UniProt Q96NY8 32-348); experiment: SPR (Biacore), antibody captured by anti-human Fc, 191P4D12 ECD as analyte
T3 construct: Range as printed
T3 sequence: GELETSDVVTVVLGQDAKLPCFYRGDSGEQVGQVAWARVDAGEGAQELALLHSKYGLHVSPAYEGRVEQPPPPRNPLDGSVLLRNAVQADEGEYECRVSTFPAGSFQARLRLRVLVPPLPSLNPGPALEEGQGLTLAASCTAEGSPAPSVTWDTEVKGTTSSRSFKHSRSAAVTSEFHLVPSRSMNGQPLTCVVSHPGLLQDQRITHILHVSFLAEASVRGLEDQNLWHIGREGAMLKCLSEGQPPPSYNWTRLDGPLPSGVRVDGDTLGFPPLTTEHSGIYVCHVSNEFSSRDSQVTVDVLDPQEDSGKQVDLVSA
Protocol: The affinity of Ha22-2(2,4)6.1 MAb and Ha22-2(2,4)6.1vcMMAE to purified recombinant 191P4D12 (ECD amino acids 1-348) was performed by Surface Plasmon Resonance (SPR) (BIAcore). Briefly, goat-anti-human Fcγ polyclonal Abs (Jackson Immuno Research Labs, Inc.) were covalently immobilized on the surface of a CM5 sensor chip (Biacore). Purified Ha22-2(2,4)6.1 MAb or Ha22-2(2,4)6.1vcMMAE were then captured on the surface of said chip. On average, approximately 300 RUs of test Ha22-2(2,4)6.1 MAb or Ha22-2(2,4)6.1vcMMAE was captured in every cycle. Subsequently, a series of five (5) to six (6) dilutions of recombinant 191P4D12 (ECD amino acids 1-348) ranging from 1 nM to 100 nM was injected over such surface to generate binding curves (sensograms) that were processed and globally fit to a 1:1 interaction model using BIAevaluation 3.2 and CLAMP software (Myszka and Morton, 1998) (FIG. 22). Table V summarizes association and dissociation rate constants as well as affinities of Ha22-2(2,4)6.1 MAb and Ha22-2(2,4)6.1 vcMMAE to recombinant 191P4D12 (ECD amino acids 1-348).

[4] = biological target: Murine ortholog of 191P4D12, N90S, I75A double mutant (on PC3 cells) (mouse) (UniProt Q8R007); experiment: FACS titration of Ha22-2(2,4)6.1 on PC3 cells expressing mouse 191P4D12 I75A,N90S
[5] = biological target: T4, 191P4D12 (aa 1-31, 147-346), mFc-C1C2, fusion protein (human, UniProt Q96NY8 1-346); experiment: Western blot of purified mFc fusion proteins (non-reduced SDS-PAGE), probed with Ha22-2(2,4)6.1-biotin and streptavidin-HRP
T4 construct: Expressed in 293T cells and purified; also called C1C2 fusion construct; not shown: murine Fc
T4 sequence: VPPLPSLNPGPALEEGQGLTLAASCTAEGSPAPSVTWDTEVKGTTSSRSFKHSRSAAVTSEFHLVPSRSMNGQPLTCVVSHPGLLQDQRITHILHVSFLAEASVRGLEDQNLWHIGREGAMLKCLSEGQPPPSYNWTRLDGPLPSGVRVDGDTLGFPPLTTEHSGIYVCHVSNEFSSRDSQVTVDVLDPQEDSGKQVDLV
Protocol: To further corroborate the results set forth in FIG. 10, a Western Blot analysis was performed. Briefly, the entire extracellular portion of 191P4D12 (full length), as well as specific domains set forth in Table VI were expressed in 293T cells as murine Fc fusion proteins and purified. Goat anti-mouse-HRP were used as a control.

EC50 [1]: 0.44 nM | EC50 (read off the curve) [2]: ~0.4 nM | Kd [3]: 16 nM | koff [3]: 0.0058 s⁻¹ | kon [3]: 380000 M⁻¹ s⁻¹ | EC50 (read off the curve) [4]: 0.5 nM | binding result [5]: no binding
B1: Ha22-2(2,4)6.1 MAb (antibody, human IgG1, kappa, V domains shown)
VH: EVQLVESGGGLVQPGGSLRLSCAASGFTFSSYNMNWVRQAPGKGLEWVSYISSSSSTIYYADSVKGRFTISRDNAKNSLSLQMNSLRDEDTAVYYCARAYYYGMDVWGQGTTVTVSS
VL: DIQMTQSPSSVSASVGDRVTITCRASQGISGWLAWYQQKPGKAPKFLIYAASTLQSGVPSRFSGSGSGTDFTLTISSLQPEDFATYYCQQANSFPPTFGGGTKVEIKR
notes: Fully human IgG1 kappa from XenoMouse; Used biotinylated in the Western blot; also called 191P4D12 MAb Ha22-2(2,4)6.1; Ha22-(2,4)6.1 MAb
